{
  "source": "paper PMC8496864",
  "key": {"[1]": {"target": "CwlDΔ25-His6 (soluble domain of C. difficile CwlD amidase, His-tagged) (Clostridioides difficile)", "experiment": "pull-down; co-affinity purification: His-tagged CwlD and untagged GerS co-produced in E. coli, captured on Ni-NTA agarose (500 mM NaCl, Tris pH 7.5, 15 mM imidazole, 10% glycerol, 2 mM ß-mercaptoethanol), eluted with 200 mM imidazole, Coomassie staining"}, "[2]": {"target": "CwlDΔ25-His6 (soluble domain of C. difficile CwlD amidase, His-tagged) (Clostridioides difficile)", "experiment": "SEC; Superdex 200 Increase 10/300 GL; 200 mM NaCl, 10 mM Tris HCl pH 7.5, 5% glycerol, 1 mM DTT; fractions on SDS-PAGE with Coomassie; complexes also run after 1 h at 4°C with fivefold excess ZnCl2 or 1 mM EDTA"}, "[3]": {"target": "FLAG-tagged CwlD_(H49A) (Clostridioides difficile)", "experiment": "co-IP; lysates of C. difficile sporulating for 22 h; FLAG IP buffer (50 mM Tris pH 7.5, 150 mM NaCl) with 0.1% NP-40; anti-FLAG magnetic resin, 1 h at room temperature; eluted with FLAG peptide; GerS detected by anti-GerS blot"}, "[4]": {"target": "FLAG-tagged CwlD_(R169D) (Clostridioides difficile)", "experiment": "co-IP; lysates of C. difficile sporulating for 22 h; FLAG IP buffer (50 mM Tris pH 7.5, 150 mM NaCl) with 0.1% NP-40; anti-FLAG magnetic resin, 1 h at room temperature; eluted with FLAG peptide; GerS detected by anti-GerS blot"}, "[5]": {"target": "FLAG-tagged CwlD_(E199A) (Clostridioides difficile)", "experiment": "co-IP; lysates of C. difficile sporulating for 22 h; FLAG IP buffer (50 mM Tris pH 7.5, 150 mM NaCl) with 0.1% NP-40; anti-FLAG magnetic resin, 1 h at room temperature; eluted with FLAG peptide; GerS detected by anti-GerS blot"}, "[6]": {"target": "CwlD_(R169D)-His6 (Clostridioides difficile)", "experiment": "pull-down; co-affinity purification: His-tagged CwlD and untagged GerS co-produced in E. coli, captured on Ni-NTA agarose (500 mM NaCl, Tris pH 7.5, 15 mM imidazole, 10% glycerol, 2 mM ß-mercaptoethanol), eluted with 200 mM imidazole, Coomassie staining"}, "[7]": {"target": "CwlD_(R169Q)-His6 (Clostridioides difficile)", "experiment": "pull-down; co-affinity purification: His-tagged CwlD and untagged GerS co-produced in E. coli, captured on Ni-NTA agarose (500 mM NaCl, Tris pH 7.5, 15 mM imidazole, 10% glycerol, 2 mM ß-mercaptoethanol), eluted with 200 mM imidazole, Coomassie staining"}, "[8]": {"target": "GerSΔ22 (soluble domain of C. difficile GerS lipoprotein, untagged) (Clostridioides difficile)", "experiment": "crystal structure; SEC-purified CwlD:GerS complex; hanging drop at 18°C, 50 mM BisTris pH 7.5, PEG 3350 12–18%, 5% glycerol, 0.25 M ammonium nitrate; 2.4 Å"}, "[9]": {"target": "CwlD_(E65A)-His6 (Clostridioides difficile)", "experiment": "SEC; Superdex 200 Increase 10/300 GL; 200 mM NaCl, 10 mM Tris HCl pH 7.5, 5% glycerol, 1 mM DTT; fractions on SDS-PAGE with Coomassie; complexes also run after 1 h at 4°C with fivefold excess ZnCl2 or 1 mM EDTA"}, "[10]": {"target": "CwlD_(H49A)-His6 (Clostridioides difficile)", "experiment": "SEC; Superdex 200 Increase 10/300 GL; 200 mM NaCl, 10 mM Tris HCl pH 7.5, 5% glycerol, 1 mM DTT; fractions on SDS-PAGE with Coomassie; complexes also run after 1 h at 4°C with fivefold excess ZnCl2 or 1 mM EDTA"}, "[11]": {"target": "CwlD_(E199A)-His6 (Clostridioides difficile)", "experiment": "SEC; Superdex 200 Increase 10/300 GL; 200 mM NaCl, 10 mM Tris HCl pH 7.5, 5% glycerol, 1 mM DTT; fractions on SDS-PAGE with Coomassie; complexes also run after 1 h at 4°C with fivefold excess ZnCl2 or 1 mM EDTA"}, "[12]": {"target": "GerSΔ22-His6 (Clostridioides difficile)", "experiment": "dynamic light scattering; DynaPro Protein Solutions DLS instrument; purified GerS, CwlD and SEC-purified CwlD:GerS complex"}, "[13]": {"target": "GerSΔ22-His6 (Clostridioides difficile)", "experiment": "SEC; Superdex 200 Increase 10/300 GL; 200 mM NaCl, 10 mM Tris HCl pH 7.5, 5% glycerol, 1 mM DTT; fractions on SDS-PAGE with Coomassie; complexes also run after 1 h at 4°C with fivefold excess ZnCl2 or 1 mM EDTA"}},
  "data": [
    {"substance": "GerS_(D106R), untagged (domain or fragment)", "values": [
      {"measurement": "reduction of GerS co-purification relative to the wild-type complex", "setting": "[1]", "result": 90, "unit": "%"}
    ]},
    {"substance": "CwlDΔ25-His6 (soluble domain of C. difficile CwlD amidase, His-tagged) (domain or fragment)", "values": [
      {"measurement": "stoichiometry N", "setting": "[2]", "result": 2}
    ]},
    {"substance": "GerS, cleaved form (GerS-c), untagged, in sporulating C. difficile (natural protein)", "values": [
      {"measurement": "fold reduction of GerS pulled down relative to wild-type FLAG-tagged CwlD", "setting": "[3]", "result": 5, "unit": "fold"},
      {"measurement": "fold reduction of GerS pulled down relative to wild-type FLAG-tagged CwlD", "setting": "[4]", "result": 5, "unit": "fold"},
      {"measurement": "decrease of GerS pulled down relative to wild-type FLAG-tagged CwlD", "setting": "[5]", "result": 40, "unit": "%"}
    ]},
    {"substance": "GerS_(D106A), untagged (domain or fragment)", "values": [
      {"measurement": "reduction of GerS co-purification relative to the wild-type complex", "setting": "[1]", "result": 90, "unit": "%"}
    ]},
    {"substance": "GerSΔ22 (soluble domain of C. difficile GerS lipoprotein, untagged) (domain or fragment)", "values": [
      {"measurement": "reduction of GerS co-purification relative to the wild-type complex", "setting": "[6]", "result": 90, "unit": "%"},
      {"measurement": "reduction of GerS co-purification relative to the wild-type complex", "setting": "[7]", "result": 90, "unit": "%"},
      {"measurement": "stoichiometry N", "setting": "[8]", "result": 2},
      {"measurement": "stoichiometry N", "setting": "[9]", "result": 1},
      {"measurement": "stoichiometry N", "setting": "[10]", "result": 1},
      {"measurement": "stoichiometry N", "setting": "[11]", "result": 1},
      {"measurement": "stoichiometry N", "setting": "[2]", "result": 1}
    ]},
    {"substance": "GerSΔ22-His6 (domain or fragment)", "values": [
      {"measurement": "stoichiometry N", "setting": "[12]", "result": 2},
      {"measurement": "stoichiometry N", "setting": "[13]", "result": 2}
    ]}
  ]
}
